These results are taken from article PMC10197580 (bioRxiv, 2023).

Like-named read-outs stand apart in the source and are kept apart here.

In experiment [1] the target is T1, TwinStrep-GFP-TPP1 OB+RD (aa 1–251) (human, UniProt Q96AP0 1-251).
T1 sequence: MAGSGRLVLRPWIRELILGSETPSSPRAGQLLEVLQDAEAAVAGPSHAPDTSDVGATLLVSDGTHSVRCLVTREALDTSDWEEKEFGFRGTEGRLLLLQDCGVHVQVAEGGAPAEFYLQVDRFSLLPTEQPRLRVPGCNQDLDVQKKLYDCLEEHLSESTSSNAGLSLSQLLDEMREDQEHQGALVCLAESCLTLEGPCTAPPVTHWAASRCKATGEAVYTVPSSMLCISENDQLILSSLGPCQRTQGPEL
Kind of experiment: cryo-EM structure.

Experiment [2] addresses T2, His6-MBP-Ctc1 (human, UniProt Q2NKJ3 1-1217).
T2 sequence: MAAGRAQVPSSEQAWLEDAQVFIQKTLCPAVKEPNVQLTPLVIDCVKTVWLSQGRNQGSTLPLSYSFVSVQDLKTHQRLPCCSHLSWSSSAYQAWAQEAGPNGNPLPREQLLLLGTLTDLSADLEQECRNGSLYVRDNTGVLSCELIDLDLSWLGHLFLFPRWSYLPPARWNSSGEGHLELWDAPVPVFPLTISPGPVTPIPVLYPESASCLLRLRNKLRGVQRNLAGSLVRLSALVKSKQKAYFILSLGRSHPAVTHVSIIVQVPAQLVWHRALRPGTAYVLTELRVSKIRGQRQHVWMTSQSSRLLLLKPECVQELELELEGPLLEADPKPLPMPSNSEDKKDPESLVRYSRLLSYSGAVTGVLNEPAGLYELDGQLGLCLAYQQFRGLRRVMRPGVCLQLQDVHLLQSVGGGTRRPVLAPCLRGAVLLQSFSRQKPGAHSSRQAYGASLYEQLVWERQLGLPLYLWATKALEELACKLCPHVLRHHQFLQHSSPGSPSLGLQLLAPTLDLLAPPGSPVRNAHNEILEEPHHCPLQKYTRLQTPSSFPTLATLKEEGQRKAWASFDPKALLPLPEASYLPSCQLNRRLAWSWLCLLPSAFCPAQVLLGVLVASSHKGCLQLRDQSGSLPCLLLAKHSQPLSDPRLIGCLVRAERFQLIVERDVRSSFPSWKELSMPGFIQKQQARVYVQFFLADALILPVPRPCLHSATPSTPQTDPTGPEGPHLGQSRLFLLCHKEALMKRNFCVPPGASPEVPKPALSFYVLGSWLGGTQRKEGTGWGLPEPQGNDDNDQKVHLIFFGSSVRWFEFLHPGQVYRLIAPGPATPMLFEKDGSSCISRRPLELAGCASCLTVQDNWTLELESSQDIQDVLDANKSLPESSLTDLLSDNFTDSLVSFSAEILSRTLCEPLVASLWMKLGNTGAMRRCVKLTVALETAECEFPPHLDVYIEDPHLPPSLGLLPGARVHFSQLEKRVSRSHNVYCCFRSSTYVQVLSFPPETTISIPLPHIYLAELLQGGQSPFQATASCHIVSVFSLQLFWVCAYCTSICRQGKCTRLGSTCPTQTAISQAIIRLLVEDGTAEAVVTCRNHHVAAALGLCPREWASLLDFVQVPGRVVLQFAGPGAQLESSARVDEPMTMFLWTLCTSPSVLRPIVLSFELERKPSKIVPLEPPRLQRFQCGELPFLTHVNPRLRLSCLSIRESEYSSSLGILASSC
Kind of experiment: cryo-EM structure.

Experiment [3] has as its target T2, His6-MBP-Ctc1. Kind of experiment: cryo-EM structure. The source holds these as a separate data set.
The target in experiment [4] is T3, His6-MBP-Ctc1/Stn1/Ten1 (human, UniProt Q2NKJ3;Q9H668;Q86WV5). The experiment can be described thus: SEC. (In general: In gel filtration, larger molecules generally elute earlier.)
The target in experiment [5] is CST with the His6-MBP tag cleaved (human, UniProt Q2NKJ3;Q9H668;Q86WV5). The experiment can be described thus: negative-stain EM.
In experiment [6] the target is T3, His6-MBP-Ctc1/Stn1/Ten1. The experiment can be described thus: cryo-EM structure.

T3 sequence (Q86WV5 whole entry, one chain of several): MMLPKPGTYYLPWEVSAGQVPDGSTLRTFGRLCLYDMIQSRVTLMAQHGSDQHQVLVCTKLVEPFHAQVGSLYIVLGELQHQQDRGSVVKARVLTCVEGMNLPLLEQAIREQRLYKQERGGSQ
CST with the His6-MBP tag cleaved, sequence (Q86WV5 whole entry, one chain of several): as above

B1: POT1(ESDL) (natural protein)
chain: MSLVPATNYIYTPLNQLKGGTIVNVYGVVKFFKPPYLSKGTDYCSVVTIVDQTNVKLTCLLFSGNYEALPIIYKNGDIVRFHRLKIQVYKKETQGITSSGFASLTFEGTLGAPIIPRTSSKYFNFTTEDHKMVEALRVWASTHMSPSWTLLKLCDVQPMQYFDLTCQLLGKAEVDGASFLLKVWDGTRTPFPSWRVLIQDLVLEGDLSHIHRLQNLTIDILVYDNHVHVARSLKVGSFLRIYSLHTKLQSMNSENQTMLSLEFHLHGGTSYGRGIRVLPESNSDVDQLKKDLESANLTANQHSDVICQSEPDDSFPSSGSESDLVSLYEVERCQQLSATILTDHQYLERTPLCAILKQKAPQQYRIRAKLRSYKPRRLFQSVKLHCPKCHLLQEVPHEGDLDIIFQDGATKTPDVKLQNTSLYDSKIWTTKNQKGRKVAVHFVKNNGILPLSNECLLLIEGGTLSEICKLSNKFNSVIPVRSGHEDLELLDLSAPFLIQGTIHHYGCKQCSSLRSIQNLNSLVDKTSWIPSSVAEALGIVPLQYVFVMTFTLDDGTGVLEAYLMDSDKFFQIPASEVLMDDDLQKSVDMIMDMFCPPGIKIDAYPWLECFIKSYNVTNGTDNQICYQIFDTTVAEDVI
modifications: phosphorylated in insect cells (sites not identified)
For B1, the binding result in experiment [1] and in experiment [2] was “binds” in each case.

B2: Stn1 (natural protein)
chain: MQPGSSRCEEETPSLLWGLDPVFLAFAKLYIRDILDMKESRQVPGVFLYNGHPIKQVDVLGTVIGVRERDAFYSYGVDDSTGVINCICWKKLNTESVSAAPSAARELSLTSQLKKLQETIEQKTKIEIGDTIRVRGSIRTYREEREIHATTYYKVDDPVWNIQIARMLELPTIYRKVYDQPFHSSALEKEEALSNPGALDLPSLTSLLSEKAKEFLMENRVQSFYQQELEMVESLLSLANQPVIHSASSDQVNFKKDTTSKAIHSIFKNAIQLLQEKGLVFQKDDGFDNLYYVTREDKDLHRKIHRIIQQDCQKPNHMEKGCHFLHILACARLSIRPGLSEAVLQQVLELLEDQSDIVSTMEHYYTAF
For the molecule B2, the binding result in experiment [3] is listed as “binds”.

B3: POT1(SED)/GFP-TPP1 (complex)
chain 1: MSLVPATNYIYTPLNQLKGGTIVNVYGVVKFFKPPYLSKGTDYCSVVTIVDQTNVKLTCLLFSGNYEALPIIYKNGDIVRFHRLKIQVYKKETQGITSSGFASLTFEGTLGAPIIPRTSSKYFNFTTEDHKMVEALRVWASTHMSPSWTLLKLCDVQPMQYFDLTCQLLGKAEVDGASFLLKVWDGTRTPFPSWRVLIQDLVLEGDLSHIHRLQNLTIDILVYDNHVHVARSLKVGSFLRIYSLHTKLQSMNSENQTMLSLEFHLHGGTSYGRGIRVLPESNSDVDQLKKDLESANLTANQHSDVICQSEPDDSSPESDSVSLYEVERCQQLSATILTDHQYLERTPLCAILKQKAPQQYRIRAKLRSYKPRRLFQSVKLHCPKCHLLQEVPHEGDLDIIFQDGATKTPDVKLQNTSLYDSKIWTTKNQKGRKVAVHFVKNNGILPLSNECLLLIEGGTLSEICKLSNKFNSVIPVRSGHEDLELLDLSAPFLIQGTIHHYGCKQCSSLRSIQNLNSLVDKTSWIPSSVAEALGIVPLQYVFVMTFTLDDGTGVLEAYLMDSDKFFQIPASEVLMDDDLQKSVDMIMDMFCPPGIKIDAYPWLECFIKSYNVTNGTDNQICYQIFDTTVAEDVI
chain 2: MAGSGRLVLRPWIRELILGSETPSSPRAGQLLEVLQDAEAAVAGPSHAPDTSDVGATLLVSDGTHSVRCLVTREALDTSDWEEKEFGFRGTEGRLLLLQDCGVHVQVAEGGAPAEFYLQVDRFSLLPTEQPRLRVPGCNQDLDVQKKLYDCLEEHLSESTSSNAGLSLSQLLDEMREDQEHQGALVCLAESCLTLEGPCTAPPVTHWAASRCKATGEAVYTVPSSMLCISENDQLILSSLGPCQRTQGPEL
For the molecule B3, the binding result in experiment [4] is reported as “binds”.

B4: His6-POT1(ESDL)/TwinStrep-GFP-TPP1 (complex)
chain 1: MSLVPATNYIYTPLNQLKGGTIVNVYGVVKFFKPPYLSKGTDYCSVVTIVDQTNVKLTCLLFSGNYEALPIIYKNGDIVRFHRLKIQVYKKETQGITSSGFASLTFEGTLGAPIIPRTSSKYFNFTTEDHKMVEALRVWASTHMSPSWTLLKLCDVQPMQYFDLTCQLLGKAEVDGASFLLKVWDGTRTPFPSWRVLIQDLVLEGDLSHIHRLQNLTIDILVYDNHVHVARSLKVGSFLRIYSLHTKLQSMNSENQTMLSLEFHLHGGTSYGRGIRVLPESNSDVDQLKKDLESANLTANQHSDVICQSEPDDSFPSSGSESDLVSLYEVERCQQLSATILTDHQYLERTPLCAILKQKAPQQYRIRAKLRSYKPRRLFQSVKLHCPKCHLLQEVPHEGDLDIIFQDGATKTPDVKLQNTSLYDSKIWTTKNQKGRKVAVHFVKNNGILPLSNECLLLIEGGTLSEICKLSNKFNSVIPVRSGHEDLELLDLSAPFLIQGTIHHYGCKQCSSLRSIQNLNSLVDKTSWIPSSVAEALGIVPLQYVFVMTFTLDDGTGVLEAYLMDSDKFFQIPASEVLMDDDLQKSVDMIMDMFCPPGIKIDAYPWLECFIKSYNVTNGTDNQICYQIFDTTVAEDVI
chain 2: MAGSGRLVLRPWIRELILGSETPSSPRAGQLLEVLQDAEAAVAGPSHAPDTSDVGATLLVSDGTHSVRCLVTREALDTSDWEEKEFGFRGTEGRLLLLQDCGVHVQVAEGGAPAEFYLQVDRFSLLPTEQPRLRVPGCNQDLDVQKKLYDCLEEHLSESTSSNAGLSLSQLLDEMREDQEHQGALVCLAESCLTLEGPCTAPPVTHWAASRCKATGEAVYTVPSSMLCISENDQLILSSLGPCQRTQGPEL
modifications: phosphorylated in insect cells (sites not identified)
As to B4, the binding result in experiment [5] and in experiment [6] was “binds” in each case.

B5: POT1(SED)/GFP-TPP1 treated with λ protein phosphatase (complex)
chain 1: MSLVPATNYIYTPLNQLKGGTIVNVYGVVKFFKPPYLSKGTDYCSVVTIVDQTNVKLTCLLFSGNYEALPIIYKNGDIVRFHRLKIQVYKKETQGITSSGFASLTFEGTLGAPIIPRTSSKYFNFTTEDHKMVEALRVWASTHMSPSWTLLKLCDVQPMQYFDLTCQLLGKAEVDGASFLLKVWDGTRTPFPSWRVLIQDLVLEGDLSHIHRLQNLTIDILVYDNHVHVARSLKVGSFLRIYSLHTKLQSMNSENQTMLSLEFHLHGGTSYGRGIRVLPESNSDVDQLKKDLESANLTANQHSDVICQSEPDDSSPESDSVSLYEVERCQQLSATILTDHQYLERTPLCAILKQKAPQQYRIRAKLRSYKPRRLFQSVKLHCPKCHLLQEVPHEGDLDIIFQDGATKTPDVKLQNTSLYDSKIWTTKNQKGRKVAVHFVKNNGILPLSNECLLLIEGGTLSEICKLSNKFNSVIPVRSGHEDLELLDLSAPFLIQGTIHHYGCKQCSSLRSIQNLNSLVDKTSWIPSSVAEALGIVPLQYVFVMTFTLDDGTGVLEAYLMDSDKFFQIPASEVLMDDDLQKSVDMIMDMFCPPGIKIDAYPWLECFIKSYNVTNGTDNQICYQIFDTTVAEDVI
chain 2: MAGSGRLVLRPWIRELILGSETPSSPRAGQLLEVLQDAEAAVAGPSHAPDTSDVGATLLVSDGTHSVRCLVTREALDTSDWEEKEFGFRGTEGRLLLLQDCGVHVQVAEGGAPAEFYLQVDRFSLLPTEQPRLRVPGCNQDLDVQKKLYDCLEEHLSESTSSNAGLSLSQLLDEMREDQEHQGALVCLAESCLTLEGPCTAPPVTHWAASRCKATGEAVYTVPSSMLCISENDQLILSSLGPCQRTQGPEL
modifications: dephosphorylated with λ protein phosphatase | dephosphorylated with λ protein phosphatase
Take B5: the binding result in experiment [4] was “binds”.
